Experimental data published in publication PMC3257248, “Wnt4 Participates in the Formation of Vertebrate Neuromuscular Junction” (PLoS ONE, 2012).

Target: T1, MuSK (muscle specific kinase), full length (rat, UniProt Q62838 22-868)
T1 sequence (looked up): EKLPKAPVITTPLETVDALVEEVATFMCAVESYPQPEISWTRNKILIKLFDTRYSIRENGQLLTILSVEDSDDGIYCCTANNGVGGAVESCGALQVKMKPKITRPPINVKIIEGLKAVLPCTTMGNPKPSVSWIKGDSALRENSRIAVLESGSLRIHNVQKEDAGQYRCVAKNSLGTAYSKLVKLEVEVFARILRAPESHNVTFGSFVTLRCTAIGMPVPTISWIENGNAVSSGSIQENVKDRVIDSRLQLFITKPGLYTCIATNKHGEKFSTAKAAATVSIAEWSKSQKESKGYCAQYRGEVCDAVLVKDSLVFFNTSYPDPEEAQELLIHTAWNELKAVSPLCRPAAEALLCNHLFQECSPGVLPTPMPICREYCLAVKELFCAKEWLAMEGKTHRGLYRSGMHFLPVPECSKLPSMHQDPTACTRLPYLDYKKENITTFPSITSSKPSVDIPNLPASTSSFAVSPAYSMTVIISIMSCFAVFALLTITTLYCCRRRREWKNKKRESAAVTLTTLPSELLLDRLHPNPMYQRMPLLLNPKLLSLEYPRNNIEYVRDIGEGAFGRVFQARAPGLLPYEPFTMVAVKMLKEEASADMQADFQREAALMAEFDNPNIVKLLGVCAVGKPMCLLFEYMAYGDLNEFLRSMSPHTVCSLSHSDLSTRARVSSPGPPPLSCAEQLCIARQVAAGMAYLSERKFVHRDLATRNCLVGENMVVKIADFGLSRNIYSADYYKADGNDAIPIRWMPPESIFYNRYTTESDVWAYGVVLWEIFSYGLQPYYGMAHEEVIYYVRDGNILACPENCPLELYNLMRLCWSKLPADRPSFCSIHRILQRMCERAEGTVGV
Assay: cell-based or functional assay

B1: HA-tagged Wnt4 (ligand, UniProt P22724 23-351, looked up)
chain: SNWLYLAKLSSVGSISEEETCEKLKGLIQRQVQMCKRNLEVMDSVRRGAQLAIEECQYQFRNRRWNCSTLDSLPVFGKVVTQGTREAAFVYAISSAGVAFAVTRACSSGELEKCGCDRTVHGVSPQGFQWSGCSDNIAYGVAFSQSFVDVRERSKGASSSRALMNLHNNEAGRKAILTHMRVECKCHGVSGSCEVKTCWRAVPPFRQVGHALKEKFDGATEVEPRRVGSSRALVPRNAQFKPHTDEDLVYLEPSPDFCEQDIRSGVLGTRGRTCNKTSKAIDGCELLCCGRGFHTAQVELAERCGCRFHWCCFVKCRQCQRLVEMHTCR
How did the “MuSK tyrosine phosphorylation (pTyr blot of HA immunoprecipitates, +Wnt4/-Wnt4 ratio) in HEK 293T cells cotransfected with HA-MuSK with or without Wnt4-HA” value turn out when B1 was run?
Its value is 2 fold.
